{"source": "the nanobody polyreactivity screen of Harvey et al. (2022)"}
{"assay": "yeast display, Sf9 membrane polyspecificity reagent, FACS + sequencing; frameworks hold sequencing errors", "method_in_brief": "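Polyreactivity labels are assigned by the sorting gate from which each nanobody was recovered. The gates were low and high (top ~1%), set on anti-HA fluorescence for expression and streptavidin fluorescence for reagent binding. Before sorting, galactose-induced (36–48 hours) yeast display cells were stained for 1 hour at 4 °C with 10% biotinylated, detergent-solubilized Sf9 membrane reagent.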"}
{"sequence": "QVQLVESGGGLVQAGGSLRLSCAASGFIFIKYAMRCYRQAPGKERELVAAISFRGGRTNYADSVKGRFTISRDNAKNTVYLQMNSLKPEDTAVYYCAAETRDYSEGYYWGQGTQVTVSS", "polyreactivity (PSR sort gate)": "high polyreactivity"}
{"sequence": "QVQLVESGGGLVQAGGSLRLSCAASGFIFIPNTMGWYRQAPGKERELVASGSTYYADSVKGRFTISRDNAKNTVYLQLNSLKPEDTAVYYCAARYHRYSSEFDYWGQGTQVTVSS", "polyreactivity (PSR sort gate)": "low polyreactivity"}
{"sequence": "QVQLVESGGGLVQAGGSLRLSCAASGFIFIQNDMGWYRQAPGKERAFFASISKDGGRTYYADSVKGRFTISRDNAKNTVYLQMNSLKPEDTAVYYCNTYPRGNWGNFVEQDYDYWGQGTQVTVSS", "polyreactivity (PSR sort gate)": "low polyreactivity"}
{"sequence": "QVQLVESGGGLVQAGGSLRLSCAASGFIFISNAMGWYRQAPGKERELVARISDTDRTHYADSVKGRFTISRDNAKNTVYLQMNSLKPEDTAVYYCATDQSLLDKVYYDVQYDYWGQGTQVTVSS", "polyreactivity (PSR sort gate)": "low polyreactivity"}
{"sequence": "QVQLVESGGGLVQAGGSLRLSCAASGFIFKGNAMGWSRQAPGKERELVAAISSRGGSTYYADSVKGRFTISRDNAKNTVYLQMNSLKPEDTAVYYCATRVYWRNDYWGQGTQVTVSS", "polyreactivity (PSR sort gate)": "high polyreactivity"}
{"sequence": "QVQLVESGGGLVQAGGSLRLSCAASGFIFKINAMGWYRQAPGKERELVAAINWTGGNTYYADSVKGRFTISRDNAKNTVYLQMNSLKPEDTAVYYCAAEFDVGWTWDYYWGQGTQVTVSS", "polyreactivity (PSR sort gate)": "high polyreactivity"}
{"sequence": "QVQLVESGGGLVQAGGSLRLSCAASGFIFKPNALGWYRQAPGKERELVAAITWGGDNTYYADSVKGRFTISRDNAKNTVYLQMNSLKPEDSAVYYCAAEWKFHSDASYIYDYWGQGTQVTVSS", "polyreactivity (PSR sort gate)": "high polyreactivity"}
{"sequence": "QVQLVESGGGLVQAGGSLRLSCAASGFIFKSNAMGWDRQAPGKERELVAAISTSGGSTYYADSVKGRFTISRDNAKNTVYLQMNSLKPEDTAVYYCAKRPSRYYYRLDYWGQGTQVTVSS", "polyreactivity (PSR sort gate)": "high polyreactivity"}
{"sequence": "QVQLVESGGGLVQAGGSLRLSCAASGFIFKSYAMGWYRPAPGKERELVAAISSGGTTNYADSVKGRFTISRDNANNTVYLQMNSLKPEDTAVYYCAAALHGHTFPFYYWGHGTQVTVSS", "polyreactivity (PSR sort gate)": "low polyreactivity"}
{"sequence": "QVQLVESGGGLVQAGGSLRLSCAASGFIFKSYAMGWYRQAPGQERELVAAISRSGSSTYYADSVKGRFTISRDNAKNTVYLLMNSLKPEDTAVYYCAKKGYRFIHFGYDYWGQGTQVTVSS", "polyreactivity (PSR sort gate)": "high polyreactivity"}
{"sequence": "QVQLVESGGGLVQAGGSLRLSCAASGFIFKSYTMGWYRQAPGKERELVAAITWSGDSTYADSVKGRFTISRDNAKNTVYLQMNSLKPEDTAVYYCAKNYAYLYYSWGQGTQVTVSS", "polyreactivity (PSR sort gate)": "low polyreactivity"}
{"sequence": "QVQLVESGGGLVQAGGSLRLSCAASGFIFKYNVMGWYRQAPGKERELVAAIRGSGRTYYADSVKGRFTISRDNAKNTVYLQMNSLKPEDTAVYYCGADIQAYASRVYAGFDYWGQGTQVTVSS", "polyreactivity (PSR sort gate)": "low polyreactivity"}
{"sequence": "QVQLVESGGGLVQAGGSLRLSCAASGFIFKYYAMGWYRHAPGKERELVAAISRRGGSTFYADSVKGRFTISRDNAKNTVYLQMNSLKPEDTAVYYCAKYPQTLPIDVWTWIHDYWGQGTQVTVSS", "polyreactivity (PSR sort gate)": "high polyreactivity"}
{"sequence": "QVQLVESGGGLVQAGGSLRLSCAASGFIFLFNAMGWYRQAPGKERELVATNSSGGSTYYADSVKGRFTISLDNAKNTVYLQMTSLKPEDTAVYYCNAGPARTVYAQSSYVLYDYWGQGTQVTVSS", "polyreactivity (PSR sort gate)": "low polyreactivity"}
{"sequence": "QVQLVESGGGLVQAGGSLRLSCAASGFIFLGNAMGWYRPAPGKERDLVAAISSGGSTYADSVKGRFTISRDNAKYTVYLQMNSLKPEDTAVYYCAVDRAFRAQNYHEYDYWGQGTQVTVSS", "polyreactivity (PSR sort gate)": "low polyreactivity"}
{"sequence": "QVQLVESGGGLVQAGGSLRLSCAASGFIFLHYAMGWYRKAPGKERELVAGIDSSVDSTFYADSVKGRFTISRDNAKNTVYLQMNSLKPEDTAVYYCAKDPDLDYYLYYYWGQGTQVTVSS", "polyreactivity (PSR sort gate)": "low polyreactivity"}
{"sequence": "QVQLVESGGGLVQAGGSLRLSCAASGFIFLLYAMGWYRQAPGKERELVAAIDTDTSTNYADSVKGRFTISRDNAKNTVYLQMNSLKPEDTAVYYCAREEPGVSLGVDYDYWGQGTQVTVSS", "polyreactivity (PSR sort gate)": "low polyreactivity"}
{"sequence": "QVQLVESGGGLVQAGGSLRLSCAASGFIFLPYVMGWYRQAPGKERELVAAISGGGGITYYADSVKGRFTISRDNAKNTVYLQMNSLKPEDTAVYYCAADDLHWLNSKRYSGRDYWGQGTQVTVSS", "polyreactivity (PSR sort gate)": "low polyreactivity"}
{"sequence": "QVQLVESGGGLVQAGGSLRLSCAASGFIFLWNAMAWYRQAPGKELDLVAAINRGTSTNYADSVKGRFTISRDNAKNTVYLQMNSLKPEDTAVYYCAVSVLPWQMYSESYAEYDYWGQGTQVTVSS", "polyreactivity (PSR sort gate)": "low polyreactivity"}
{"sequence": "QVQLVESGGGLVQAGGSLRLSCAASGFIFLYAMGWYRQAPGKERELVAAISWSDTSTYYADSVKGRFTISRDNAKNTVYLQMNSLKPEDTAVYYCNAETWNYGDYDYWGQGTQVTVSS", "polyreactivity (PSR sort gate)": "high polyreactivity"}
{"sequence": "QVQLVESGGGLVQAGGSLRLSCAASGFIFLYYAMGWYRQAPGKERELVAAITTRGGRTYYADSVKGRFTISRDNAKNTVYLQMNSLKPEDTAVYYCAVQVSWSYYRYGYWGQGTQVTVSS", "polyreactivity (PSR sort gate)": "low polyreactivity"}
{"sequence": "QVQLVESGGGLVQAGGSLRLSCAASGFIFNAYAMGWYRQAPGKERELVAAITFRTTSTYYADSVKGRFTISRDNAKNTVYLQMNSLKPEDTAVYYCAALWIYSGWRYDYWGQGTQVTVSS", "polyreactivity (PSR sort gate)": "high polyreactivity"}
{"sequence": "QVQLVESGGGLVQAGGSLRLSCAASGFIFNINTMGWYRQAPGKERELVAAITLNGDGTYYADSVKGRFTISRDNAKNTVDIQMNSLNPADTAVDYCNAATWYYYYVSRETYYFDVDYWGQGTQVTVSS", "polyreactivity (PSR sort gate)": "low polyreactivity"}
{"sequence": "QVQLVESGGGLVQAGGSLRLSCAASGFIFNLYAMGWYRQAPGKERELVATITNRGGITHYADSVKGRFTISRDNAKNTVYLQMNSLKPEDSAVYYCAVKVYRRSGGYEYWGQGTQVTVSS", "polyreactivity (PSR sort gate)": "low polyreactivity"}
{"sequence": "QVQLVESGGGLVQAGGSLRLSCAASGFIFNNYAMGWSRQAPGKERELVAAITWSGGGTYYADSVKGRFTISRDNAKNTVYLQMNSLKPEDSAVYYCAVYYPAYLEEYWGQGTQVTVSS", "polyreactivity (PSR sort gate)": "high polyreactivity"}
{"sequence": "QVQLVESGGGLVQAGGSLRLSCAASGFIFNNYGMGWSRQAPGKERELVATISRGASTNYADSVKGRFTISRDNAKNTVYLQMNSLKPEDTAVYYCAKDYGDWGQGTQVTVSS", "polyreactivity (PSR sort gate)": "low polyreactivity"}
{"sequence": "QVQLVESGGGLVQAGGSLRLSCAASGFIFNRNAMGWYRQAPGKERELVAAITWSASRTYYADSVKGRFTISRDNAKNTVYLQMNSLKPEDTAVSYCAARRYRGYDYWGQGTQVTVSS", "polyreactivity (PSR sort gate)": "high polyreactivity"}
{"sequence": "QVQLVESGGGLVQAGGSLRLSCAASGFIFNSYAMGWYRPAPGKERELVAVISWSGGTTYYADSVKGRFTISRDNAKNTVFLQMNSLKPEDTAVYYCAASSYRSQYGYWGQGTQVTVSS", "polyreactivity (PSR sort gate)": "high polyreactivity"}
{"sequence": "QVQLVESGGGLVQAGGSLRLSCAASGFIFNSYGMGWYRQAPGKERELVAAITKSGGSTYYADSVKGRFTISRDNAKNTVYLQMNSLKPEDTAVYYCAARAYRYSVYRGDYWGQGTQVTVSS", "polyreactivity (PSR sort gate)": "high polyreactivity"}
{"sequence": "QVQLVESGGGLVQAGGSLRLSCAASGFIFNWNTMGWYRQAPGKERELVATMTGSGGSTYADSVKGRFTISRDNAKNTVYLQMNSLKPEDTAVYYCAATRRSFHKYDYWGQGTQVTVSS", "polyreactivity (PSR sort gate)": "low polyreactivity"}
{"sequence": "QVQLVESGGGLVQAGGSLRLSCAASGFIFNYNAMGWYRQAPGKERELVAAISGTGVRTYYADSVKGRFTISRDNAKNTVYLQMNSLKPEDTAVYYCNAYYGYIPVSGYRNDYWGQGTQVTVSS", "polyreactivity (PSR sort gate)": "low polyreactivity"}
{"sequence": "QVQLVESGGGLVQAGGSLRLSCAASGFIFNYYAMGWYIQAPGKERELVAAISTNGGSTYYADSVKGRFTISRDNAKNTVYLQMNSLKPEDTAVYYCAARSYGVSGRYYRYTFGMDYWGQGTQVTVSS", "polyreactivity (PSR sort gate)": "high polyreactivity"}
{"sequence": "QVQLVESGGGLVQAGGSLRLSCAASGFIFNYYAMGWYRQAPGKERELVAISRGGSTNYADSVKGRFTISRDNAKNTVYLQMNSLKPEDTAVYYCAATKRYASGMYYWGQGTQVTVSS", "polyreactivity (PSR sort gate)": "high polyreactivity"}
{"sequence": "QVQLVESGGGLVQAGGSLRLSCAASGFIFPDNVMGWYRQAPGKERELVAAISRSGGSTYYADSVKGRFTISRDNAKNTVYLQMNSLKPEDTAVYYCAVKFVRYRQGIVLYDYWGQGTQVTVSS", "polyreactivity (PSR sort gate)": "high polyreactivity"}
{"sequence": "QVQLVESGGGLVQAGGSLRLSCAASGFIFPEYAMGWYRQAPGKERELVAAINWSGGNTYYADSVKGRFTISRDNAKNTVYLQMNSLKPEDTAVYYCNVDDWVTDDDYWGQGTQVTVSS", "polyreactivity (PSR sort gate)": "low polyreactivity"}
{"sequence": "QVQLVESGGGLVQAGGSLRLSCAASGFIFPFYAMGWYRQAPGKERELGASITWSGSTYADSVKGRFTISRDNAKNTVYLQMNSLKPEDTAVYYCNTDPRSVVGWYAYWGQGTQVTVSS", "polyreactivity (PSR sort gate)": "low polyreactivity"}
{"sequence": "QVQLVESGGGLVQAGGSLRLSCAASGFIFPFYAMGWYRQAPGKERELVAGIRGVGSTNYADSVKGRFTISRDNAKNTVYLQMNSLKPEDTAVYYCNKELYDFKDRNLTAFLLRIFDSWGQGTQVTVSS", "polyreactivity (PSR sort gate)": "low polyreactivity"}
{"sequence": "QVQLVESGGGLVQAGGSLRLSCAASGFIFPGNARGWYRQAPGKERELVAAISNSGSRTYYADSVKGRFTISRDNAKNTVYLQMNSLKPEDTAVYYCAALNYHKFAHKYDYWGQGTQVTVSS", "polyreactivity (PSR sort gate)": "low polyreactivity"}
{"sequence": "QVQLVESGGGLVQAGGSLRLSCAASGFIFPGNTMGWYRQAPGKERELVAAITRSGASTYYADSVKGRFTISRDNAKNTVYLQMNSLKPEDTAVYYCAERYYYGLRYPDYYYWGQGTQVTVSS", "polyreactivity (PSR sort gate)": "high polyreactivity"}
{"sequence": "QVQLVESGGGLVQAGGSLRLSCAASGFIFPGNVMGWYIQAPWKERELVAAISSGGGSTYYADSVKGRFTISRDNAKNSVYLQMNSLKPEDTAVYYCAKRTPRKWGQGTQVTVSS", "polyreactivity (PSR sort gate)": "high polyreactivity"}
{"sequence": "QVQLVESGGGLVQAGGSLRLSCAASGFIFPGYAMGWYRQAPGKERELVAVISGSGARTYYADSVKGRFTISRDNAKNTVYLQMNSLKPEDTAVYYCATDYCRTRQYRPGDYWGQGTQVTVSS", "polyreactivity (PSR sort gate)": "high polyreactivity"}
{"sequence": "QVQLVESGGGLVQAGGSLRLSCAASGFIFPKNAMGWYRQAPGKERELVAAISRSSGNTYYADSVKGRFTISRDNAKNTVYLQMNSLKPEDTAVYYCAASYWPYRGPVGGSKMYYWGQGTQVTVSS", "polyreactivity (PSR sort gate)": "high polyreactivity"}
{"sequence": "QVQLVESGGGLVQAGGSLRLSCAASGFIFPNNAMGWYRQAPGKERELVARISYGGGDTHYADSVKGRFTISRDNAKNTVYLERNSLKPEDTAVYYCAVKDGQDDYWGQGTQVTVSS", "polyreactivity (PSR sort gate)": "low polyreactivity"}
